The conditions of this series: Weissella confusa, Thermal, reversible: No, whole UniProt chain shown.
[1] abbreviates: pH 6, DSC, Natrium phosphate Imidazol 50 mM 250 mM, NaCl 300 mM.
[2] abbreviates: pH 7, DSC, Natrium phosphate Imidazol 50 mM 250 mM, NaCl 300 mM.
[3] abbreviates: pH 8, DSC, Natrium phosphate Imidazol 50 mM 250 mM, NaCl 300 mM.

By Tm is commonly meant the temperature at the midpoint of the melting transition.

B1: L-2-hydroxyisocaproate dehydrogenase wild type, P14295 (protein)
chain: MARKIGIIGLGNVGAAVAHGLIAQGVADDYVFIDANEAKVKADQIDFQDAMANLEAHGNIVINDWAALADADVVISTLGNIKLQQDNPTGDRFAELKFTSSMVQSVGTNLKESGFHGVLVVISNPVDVITALFQHVTGFPAHKVIGTGTLLDTARMQRAVGEAFDLDPRSVSGYNLGEHGNSQFVAWSTVRVMGQPIVTLADAGDIDLAAIEEEARKGGFTVLNGKGYTSYGVATSAIRIAKAVMADAHAELVVSNRRDDMGMYLSYPAIIGRDGVLAETTLDLTTDEQEKLLQSRDYIQQRFDEIVDTL
Consider B1, for which the Tm reads like this: (pH 6, CD, Potassium phosphate 5 mM) 56.8 °C; under setting [1], 62.5 °C; (pH 6, DSC, Potassium phosphate 5 mM) 57.2 °C; (pH 7, CD, Potassium phosphate 5 mM) 60.2 °C; under setting [2], 55.1 °C; (pH 7, DSC, Potassium phosphate 5 mM) 59.6 °C. In addition, the Tm was determined as 56.2 °C (pH 8, CD, Potassium phosphate 5 mM) and 44.1 °C under setting [3]. For the same protein, the “unfolding enthalpy (calorimetric)” value came to 222 kcal/mol under setting [1], 203 kcal/mol under setting [2] and 221 kcal/mol under setting [3]. In addition, the “unfolding enthalpy (van 't Hoff)” value runs as follows: under setting [1], 227 kcal/mol; under setting [2], 202 kcal/mol; under setting [3], 225 kcal/mol.

The values above are taken from FireProtDB (doi:10.1007/s10930-006-9055-y).
